Measured values from PMC8307404, “Crystal Structure-Guided Design of Bisubstrate Inhibitors and Photoluminescent Probes for Protein Kinases of the PIM Family” (Molecules, 2021).
Square brackets hold non-standard residues; d marks the D form. Peptide text beside a SMILES is read from it. * marks the point of attachment. X3 = O=C(CCCCCNCc1nc2c(sc3cc(Br)cnc32)c(=O)[nH]1)*

Legend:
Assay in all cases: Kinase profiling (radiometric filter-binding)
Type in all cases: biochemical
MAP4K5 = MAP4K5 (Homo sapiens, UniProt Q9Y4K4); details: MAP4K5, 1 µM inhibitor; read-out: Residual activity, %
How it was run: (§1)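 Human kinase, ATP (≤ KM) and test compound (1 µM final) were combined; phosphorylation was quantified by radiometric filter binding. Activity left was normalised to the control reaction without compound.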

ERK2 = ERK2 (Homo sapiens, UniProt P28482); details: ERK2, 1 µM inhibitor; read-out: Residual activity, %
Chain of ERK2 (P28482 whole entry): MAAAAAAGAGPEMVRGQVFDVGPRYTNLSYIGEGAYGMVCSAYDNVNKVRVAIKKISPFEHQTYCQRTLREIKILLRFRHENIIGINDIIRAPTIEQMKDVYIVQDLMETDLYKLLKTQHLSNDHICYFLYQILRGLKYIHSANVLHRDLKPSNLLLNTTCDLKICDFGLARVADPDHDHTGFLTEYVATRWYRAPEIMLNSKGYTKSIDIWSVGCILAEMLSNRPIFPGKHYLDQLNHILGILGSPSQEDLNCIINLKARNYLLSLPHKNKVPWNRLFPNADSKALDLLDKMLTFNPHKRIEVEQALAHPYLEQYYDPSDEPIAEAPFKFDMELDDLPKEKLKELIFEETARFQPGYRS
How it was run: as §1

MST2 = target: T1, MST2 (Homo sapiens, UniProt Q13188); details: MST2, 1 µM inhibitor; read-out: Residual activity, %
T1 sequence (Q13188 1-491): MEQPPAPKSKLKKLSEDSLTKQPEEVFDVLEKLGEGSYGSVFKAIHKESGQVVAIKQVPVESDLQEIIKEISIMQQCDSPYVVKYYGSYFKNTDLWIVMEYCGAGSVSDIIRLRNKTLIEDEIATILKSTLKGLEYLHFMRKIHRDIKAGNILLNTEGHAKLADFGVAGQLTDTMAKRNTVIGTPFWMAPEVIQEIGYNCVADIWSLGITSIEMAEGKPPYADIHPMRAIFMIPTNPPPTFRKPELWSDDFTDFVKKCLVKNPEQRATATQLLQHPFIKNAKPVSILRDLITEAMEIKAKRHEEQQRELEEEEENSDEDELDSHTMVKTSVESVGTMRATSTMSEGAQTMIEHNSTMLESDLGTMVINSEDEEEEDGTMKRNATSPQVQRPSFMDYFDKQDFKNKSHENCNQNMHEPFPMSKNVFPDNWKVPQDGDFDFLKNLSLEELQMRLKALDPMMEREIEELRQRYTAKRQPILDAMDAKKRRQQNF
How it was run: as §1

MAPKAP-K2 = MAPKAP-K2 (Homo sapiens, UniProt P49137); details: MAPKAP-K2, 1 µM inhibitor; read-out: Residual activity, %
How it was run: as §1

PKA = PKA (Homo sapiens, UniProt P17612); details: 1 µM inhibitor, read-out: Residual activity, %
How it was run: as §1

HIPK1 = HIPK1 (Homo sapiens, UniProt Q86Z02); details: HIPK1, 1 µM inhibitor; read-out: Residual activity, %
How it was run: as §1

PKCγ = PKCγ (Homo sapiens, UniProt P05129); details: 1 µM inhibitor, read-out: Residual activity, %
How it was run: as §1

TGFBR1 = target: T2, TGFBR1 (Homo sapiens, UniProt P36897); details: TGFBR1, 1 µM inhibitor; read-out: Residual activity, %
T2 sequence (P36897 34-503): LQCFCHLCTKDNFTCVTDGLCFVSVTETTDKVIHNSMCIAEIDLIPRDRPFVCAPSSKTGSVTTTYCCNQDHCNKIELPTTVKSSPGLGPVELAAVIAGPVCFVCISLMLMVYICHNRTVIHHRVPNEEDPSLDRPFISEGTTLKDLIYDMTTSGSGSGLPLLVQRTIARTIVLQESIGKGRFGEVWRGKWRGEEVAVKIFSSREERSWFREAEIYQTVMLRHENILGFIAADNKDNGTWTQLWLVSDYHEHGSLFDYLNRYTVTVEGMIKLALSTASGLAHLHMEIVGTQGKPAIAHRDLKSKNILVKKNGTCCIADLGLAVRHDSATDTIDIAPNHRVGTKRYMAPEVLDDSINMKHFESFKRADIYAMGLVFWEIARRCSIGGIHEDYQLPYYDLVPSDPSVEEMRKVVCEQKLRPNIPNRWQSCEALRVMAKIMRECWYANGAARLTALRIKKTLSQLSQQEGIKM
How it was run: as §1

SIK3 = SIK3 (Homo sapiens, UniProt Q9Y2K2); details: SIK3, 1 µM inhibitor; read-out: Residual activity, %
How it was run: as §1

CSK = CSK (Homo sapiens, UniProt P41240); details: 1 µM inhibitor, read-out: Residual activity, %
Chain of CSK (P41240 whole entry): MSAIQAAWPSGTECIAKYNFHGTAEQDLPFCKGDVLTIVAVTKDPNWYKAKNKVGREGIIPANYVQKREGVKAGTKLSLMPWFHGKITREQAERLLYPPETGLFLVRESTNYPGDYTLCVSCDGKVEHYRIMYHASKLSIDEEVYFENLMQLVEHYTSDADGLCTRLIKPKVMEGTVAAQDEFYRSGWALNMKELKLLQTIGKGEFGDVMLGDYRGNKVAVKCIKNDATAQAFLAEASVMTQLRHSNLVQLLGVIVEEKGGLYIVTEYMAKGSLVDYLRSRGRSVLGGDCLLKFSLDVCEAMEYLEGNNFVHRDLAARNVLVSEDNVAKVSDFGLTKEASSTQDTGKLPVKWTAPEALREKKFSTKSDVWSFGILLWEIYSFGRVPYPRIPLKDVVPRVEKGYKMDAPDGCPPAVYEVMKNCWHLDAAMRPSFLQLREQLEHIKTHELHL
How it was run: as §1

MELK = MELK (Homo sapiens, UniProt Q14680); details: 1 µM inhibitor, read-out: Residual activity, %
How it was run: as §1

PRK2 = PRK2 (Homo sapiens, UniProt Q16513); details: PRK2, 1 µM inhibitor; read-out: Residual activity, %
Chain of PRK2 (Q16513 whole entry): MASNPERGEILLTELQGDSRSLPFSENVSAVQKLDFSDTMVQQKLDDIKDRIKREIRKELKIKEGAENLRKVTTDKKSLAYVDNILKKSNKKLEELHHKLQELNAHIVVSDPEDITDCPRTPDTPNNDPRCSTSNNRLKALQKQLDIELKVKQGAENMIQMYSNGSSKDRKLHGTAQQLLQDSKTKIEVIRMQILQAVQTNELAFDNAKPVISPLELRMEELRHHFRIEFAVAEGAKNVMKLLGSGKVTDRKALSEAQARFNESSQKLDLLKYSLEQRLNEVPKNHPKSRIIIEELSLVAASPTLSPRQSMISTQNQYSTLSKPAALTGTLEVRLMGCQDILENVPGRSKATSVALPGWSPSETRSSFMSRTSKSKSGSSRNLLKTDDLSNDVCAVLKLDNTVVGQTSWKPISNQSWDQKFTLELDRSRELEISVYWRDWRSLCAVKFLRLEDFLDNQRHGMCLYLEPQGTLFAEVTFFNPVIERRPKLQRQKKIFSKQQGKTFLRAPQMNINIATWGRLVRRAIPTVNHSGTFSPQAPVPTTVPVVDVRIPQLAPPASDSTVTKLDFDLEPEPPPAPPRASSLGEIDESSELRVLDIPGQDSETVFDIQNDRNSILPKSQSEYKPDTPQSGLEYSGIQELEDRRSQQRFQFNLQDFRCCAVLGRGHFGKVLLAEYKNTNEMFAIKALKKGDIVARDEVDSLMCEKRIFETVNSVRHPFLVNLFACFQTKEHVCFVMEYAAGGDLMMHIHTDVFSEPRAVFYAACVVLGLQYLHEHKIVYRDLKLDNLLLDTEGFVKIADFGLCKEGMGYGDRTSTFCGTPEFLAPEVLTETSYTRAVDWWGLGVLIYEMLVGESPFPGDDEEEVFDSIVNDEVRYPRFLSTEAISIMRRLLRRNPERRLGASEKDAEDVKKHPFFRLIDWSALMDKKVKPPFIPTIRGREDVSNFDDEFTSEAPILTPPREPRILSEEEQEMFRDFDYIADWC
How it was run: as §1

MARK2 = MARK2 (Homo sapiens, UniProt Q7KZI7); details: MARK2, 1 µM inhibitor; read-out: Residual activity, %
How it was run: as §1

TTBK2 = TTBK2 (Homo sapiens, UniProt Q6IQ55); details: TTBK2, 1 µM inhibitor; read-out: Residual activity, %
Chain of TTBK2 (Q6IQ55 whole entry): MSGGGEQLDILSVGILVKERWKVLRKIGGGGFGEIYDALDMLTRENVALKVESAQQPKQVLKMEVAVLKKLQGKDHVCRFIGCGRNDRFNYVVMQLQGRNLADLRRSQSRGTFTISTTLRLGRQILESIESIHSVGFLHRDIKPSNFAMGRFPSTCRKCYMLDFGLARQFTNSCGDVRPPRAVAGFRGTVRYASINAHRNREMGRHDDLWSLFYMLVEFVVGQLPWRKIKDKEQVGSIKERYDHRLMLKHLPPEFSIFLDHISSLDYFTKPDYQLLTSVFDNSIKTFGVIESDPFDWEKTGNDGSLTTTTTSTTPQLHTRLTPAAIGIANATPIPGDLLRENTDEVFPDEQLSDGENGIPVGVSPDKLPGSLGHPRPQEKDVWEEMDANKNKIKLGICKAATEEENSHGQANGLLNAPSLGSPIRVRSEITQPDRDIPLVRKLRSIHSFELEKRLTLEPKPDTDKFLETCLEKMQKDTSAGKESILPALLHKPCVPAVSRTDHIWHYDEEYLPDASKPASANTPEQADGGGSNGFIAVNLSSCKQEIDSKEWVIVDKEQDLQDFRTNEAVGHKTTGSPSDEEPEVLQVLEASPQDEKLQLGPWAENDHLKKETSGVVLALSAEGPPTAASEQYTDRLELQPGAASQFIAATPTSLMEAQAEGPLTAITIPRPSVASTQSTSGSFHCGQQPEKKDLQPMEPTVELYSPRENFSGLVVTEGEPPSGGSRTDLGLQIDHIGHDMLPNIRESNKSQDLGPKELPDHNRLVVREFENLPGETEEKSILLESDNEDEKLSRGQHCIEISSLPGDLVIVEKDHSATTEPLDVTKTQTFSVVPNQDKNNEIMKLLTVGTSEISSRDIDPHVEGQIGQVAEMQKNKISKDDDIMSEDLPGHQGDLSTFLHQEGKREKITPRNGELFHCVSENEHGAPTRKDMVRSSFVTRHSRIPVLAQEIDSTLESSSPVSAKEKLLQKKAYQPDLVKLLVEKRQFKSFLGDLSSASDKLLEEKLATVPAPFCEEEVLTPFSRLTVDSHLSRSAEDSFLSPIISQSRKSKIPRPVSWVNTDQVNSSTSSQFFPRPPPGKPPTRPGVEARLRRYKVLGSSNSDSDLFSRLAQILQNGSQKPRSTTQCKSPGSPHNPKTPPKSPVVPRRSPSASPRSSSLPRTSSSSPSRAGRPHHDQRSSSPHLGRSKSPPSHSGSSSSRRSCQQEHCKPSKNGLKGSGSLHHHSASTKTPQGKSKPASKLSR
How it was run: as §1

IGF-1R = IGF-1R (Homo sapiens, UniProt P08069); details: 1 µM inhibitor, read-out: Residual activity, %
Chain of IGF-1R (P08069 31-1367): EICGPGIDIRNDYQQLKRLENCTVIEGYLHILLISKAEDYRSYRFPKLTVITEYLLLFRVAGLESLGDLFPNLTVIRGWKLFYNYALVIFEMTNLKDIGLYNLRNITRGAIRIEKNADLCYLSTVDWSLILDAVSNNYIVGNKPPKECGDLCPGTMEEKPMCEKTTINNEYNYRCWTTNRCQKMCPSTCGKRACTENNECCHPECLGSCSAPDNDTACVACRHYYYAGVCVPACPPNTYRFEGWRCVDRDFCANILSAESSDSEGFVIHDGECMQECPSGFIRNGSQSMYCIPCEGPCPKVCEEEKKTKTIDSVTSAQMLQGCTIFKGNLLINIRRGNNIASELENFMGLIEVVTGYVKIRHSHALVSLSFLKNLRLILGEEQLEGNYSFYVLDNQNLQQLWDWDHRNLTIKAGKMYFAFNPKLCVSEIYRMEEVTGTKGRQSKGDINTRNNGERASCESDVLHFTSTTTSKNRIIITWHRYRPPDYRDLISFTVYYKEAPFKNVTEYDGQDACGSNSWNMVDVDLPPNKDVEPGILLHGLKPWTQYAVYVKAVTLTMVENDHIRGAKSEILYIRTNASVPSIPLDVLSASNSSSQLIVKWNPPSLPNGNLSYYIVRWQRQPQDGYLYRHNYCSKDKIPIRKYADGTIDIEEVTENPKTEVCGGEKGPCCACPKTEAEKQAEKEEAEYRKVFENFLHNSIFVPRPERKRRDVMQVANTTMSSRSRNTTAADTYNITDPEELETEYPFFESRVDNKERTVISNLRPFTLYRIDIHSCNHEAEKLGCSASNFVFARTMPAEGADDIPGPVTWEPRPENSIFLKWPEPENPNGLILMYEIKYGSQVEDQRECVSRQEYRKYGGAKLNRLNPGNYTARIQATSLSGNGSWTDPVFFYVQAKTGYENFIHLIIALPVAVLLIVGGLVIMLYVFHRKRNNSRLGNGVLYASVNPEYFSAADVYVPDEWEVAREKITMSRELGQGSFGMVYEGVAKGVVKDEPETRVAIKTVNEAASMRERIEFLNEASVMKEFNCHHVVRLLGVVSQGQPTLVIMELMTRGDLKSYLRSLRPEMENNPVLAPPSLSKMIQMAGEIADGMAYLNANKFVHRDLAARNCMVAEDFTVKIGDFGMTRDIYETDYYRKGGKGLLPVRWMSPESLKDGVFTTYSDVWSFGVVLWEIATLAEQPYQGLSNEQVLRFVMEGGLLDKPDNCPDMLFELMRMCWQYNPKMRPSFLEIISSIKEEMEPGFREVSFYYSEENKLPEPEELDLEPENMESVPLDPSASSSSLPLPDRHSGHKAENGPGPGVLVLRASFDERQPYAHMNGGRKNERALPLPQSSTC
How it was run: as §1

Structure (SMILES) | remaining activity at 1 µM (MAP4K5) | remaining activity at 1 µM (ERK2) | remaining activity at 1 µM (MST2) | remaining activity at 1 µM (MAPKAP-K2) | remaining activity at 1 µM (PKA) | remaining activity at 1 µM (HIPK1) | remaining activity at 1 µM (PKCγ) | remaining activity at 1 µM (TGFBR1) | remaining activity at 1 µM (SIK3) | remaining activity at 1 µM (CSK) | remaining activity at 1 µM (MELK) | remaining activity at 1 µM (PRK2) | remaining activity at 1 µM (MARK2) | remaining activity at 1 µM (TTBK2) | remaining activity at 1 µM (IGF-1R)
N=C(N)NCCC[C@@H](NC(=O)CCCCCNC(=O)Cn1cnc2c(I)c(I)c(I)c(I)c21)C(=O)N[C@H](CCCNC(=N)N)C(=O)N[C@H](CCCNC(=N)N)C(=O)N[C@H](CCCNC(=N)N)C(=O)N[C@H](CCCNC(=N)N)C(=O)N[C@H](CCCNC(=N)N)C(=O)N[C@H](CCCCN)C(N)=O [ARC-3125, TIBI-CH2-C(=O)-Ahx-(D-Arg)6-D-Lys-NH2] | 102 ± 3% | 161 ± 4% | 73 ± 1% | 51 ± 5% | 7 ± 3% | 61 ± 1% | 86 ± 9% | 108 ± 18% | 89 ± 7% | 85 ± 2% | 34 ± 4% | 16 ± 6% | 86 ± 4% | 101 ± 24% | –
N=C(N)NCCC[C@@H](NC(=O)CCCCCNCc1nc2c(sc3cc(Br)cnc32)c(=O)[nH]1)C(=O)N[C@H](CCCNC(=N)N)C(=O)N[C@H](CCCNC(=N)N)C(=O)N[C@H](CCCNC(=N)N)C(=O)N[C@H](CCCNC(=N)N)C(=O)N[C@H](CCCNC(=N)N)C(=O)N[C@H](CCCCN)C(N)=O [ARC-3126, BPTP-Ahx-(D-Arg)6-D-Lys-NH2] (X3-[dR][dR][dR][dR][dR][dR][dK]-NH2) | 50 ± 12% | 166 ± 1% | 106 ± 6% | – | 97% | 95 ± 15% | 98 ± 8% | 109 ± 2% | 117 ± 15% | 91 ± 18% | 79 ± 1% | 58 ± 15% | 103 ± 7% | 77 ± 2% | 114 ± 24%
N=C(N)NCCC[C@@H](NC(=O)CNC(=O)[C@@H](CCCNC(=N)N)NC(=O)[C@@H](CCCNC(=N)N)NC(=O)CCCCCCCNCc1nc2c(sc3cc(Br)cnc32)c(=O)[nH]1)C(=O)N[C@H](CCCCN)C(N)=O [Compound 1, BPTP-Aoc-(D-Arg)2-Gly-D-Arg-D-Lys-NH2] | 107 ± 12% | 101 ± 14% | 115 ± 11% | 107 ± 10% | 100 ± 9% | 111 ± 9% | 99 ± 11% | 103 ± 8% | 106 ± 2% | 141 ± 10% | 86 ± 5% | 92 ± 2% | 106 ± 10% | 109 ± 6% | 77 ± 8%
N=C(N)NCCC[C@@H](NC(=O)CNC(=O)[C@@H](CCCNC(=N)N)NC(=O)[C@@H](CCCNC(=N)N)NC(=O)CCCCCCCNCc1nc2c(sc3ccc(Br)cc32)c(=O)[nH]1)C(=O)N[C@H](CCCCN)C(N)=O [Compound 2, BBTP-Aoc-(D-Arg)2-Gly-D-Arg-D-Lys-NH2] | 112 ± 10% | 102 ± 1% | 128 ± 35% | 107 ± 2% | 85 ± 6% | 60 ± 12% | 97 ± 3% | 106 ± 7% | 97 ± 9% | 112 ± 20% | 75 ± 9% | 94 ± 12% | 107 ± 4% | 125 ± 12% | 91 ± 6%
N=C(N)NCCC[C@@H](NC(=O)CNC(=O)[C@@H](CCCNC(=N)N)NC(=O)[C@@H](CCCNC(=N)N)NC(=O)Cn1cc(CNCc2nc3c(sc4ccc(Br)cc43)c(=O)[nH]2)nn1)C(=O)N[C@H](CCCCN)C(N)=O [Compound 3, BBTP-Amt-(D-Arg)2-Gly-D-Arg-D-Lys-NH2] | 98 ± 3% | 104 ± 5% | 84 ± 6% | 114 ± 4% | 82 ± 10% | 60 ± 3% | 105 ± 9% | 95 ± 10% | 66 ± 6% | 116 ± 5% | 73 ± 11% | 67 ± 4% | 79% | 105 ± 15% | 58 ± 7%
